Assay results published in publication PMC6795519.

Molecular target: PIP3-dependent Rac exchanger 1 (P-Rex1), residues 38 to 1659 (human) (UniProt Q8TCU6)
Sequence of UniProt Q8TCU6 (Q8TCU6 38-1659): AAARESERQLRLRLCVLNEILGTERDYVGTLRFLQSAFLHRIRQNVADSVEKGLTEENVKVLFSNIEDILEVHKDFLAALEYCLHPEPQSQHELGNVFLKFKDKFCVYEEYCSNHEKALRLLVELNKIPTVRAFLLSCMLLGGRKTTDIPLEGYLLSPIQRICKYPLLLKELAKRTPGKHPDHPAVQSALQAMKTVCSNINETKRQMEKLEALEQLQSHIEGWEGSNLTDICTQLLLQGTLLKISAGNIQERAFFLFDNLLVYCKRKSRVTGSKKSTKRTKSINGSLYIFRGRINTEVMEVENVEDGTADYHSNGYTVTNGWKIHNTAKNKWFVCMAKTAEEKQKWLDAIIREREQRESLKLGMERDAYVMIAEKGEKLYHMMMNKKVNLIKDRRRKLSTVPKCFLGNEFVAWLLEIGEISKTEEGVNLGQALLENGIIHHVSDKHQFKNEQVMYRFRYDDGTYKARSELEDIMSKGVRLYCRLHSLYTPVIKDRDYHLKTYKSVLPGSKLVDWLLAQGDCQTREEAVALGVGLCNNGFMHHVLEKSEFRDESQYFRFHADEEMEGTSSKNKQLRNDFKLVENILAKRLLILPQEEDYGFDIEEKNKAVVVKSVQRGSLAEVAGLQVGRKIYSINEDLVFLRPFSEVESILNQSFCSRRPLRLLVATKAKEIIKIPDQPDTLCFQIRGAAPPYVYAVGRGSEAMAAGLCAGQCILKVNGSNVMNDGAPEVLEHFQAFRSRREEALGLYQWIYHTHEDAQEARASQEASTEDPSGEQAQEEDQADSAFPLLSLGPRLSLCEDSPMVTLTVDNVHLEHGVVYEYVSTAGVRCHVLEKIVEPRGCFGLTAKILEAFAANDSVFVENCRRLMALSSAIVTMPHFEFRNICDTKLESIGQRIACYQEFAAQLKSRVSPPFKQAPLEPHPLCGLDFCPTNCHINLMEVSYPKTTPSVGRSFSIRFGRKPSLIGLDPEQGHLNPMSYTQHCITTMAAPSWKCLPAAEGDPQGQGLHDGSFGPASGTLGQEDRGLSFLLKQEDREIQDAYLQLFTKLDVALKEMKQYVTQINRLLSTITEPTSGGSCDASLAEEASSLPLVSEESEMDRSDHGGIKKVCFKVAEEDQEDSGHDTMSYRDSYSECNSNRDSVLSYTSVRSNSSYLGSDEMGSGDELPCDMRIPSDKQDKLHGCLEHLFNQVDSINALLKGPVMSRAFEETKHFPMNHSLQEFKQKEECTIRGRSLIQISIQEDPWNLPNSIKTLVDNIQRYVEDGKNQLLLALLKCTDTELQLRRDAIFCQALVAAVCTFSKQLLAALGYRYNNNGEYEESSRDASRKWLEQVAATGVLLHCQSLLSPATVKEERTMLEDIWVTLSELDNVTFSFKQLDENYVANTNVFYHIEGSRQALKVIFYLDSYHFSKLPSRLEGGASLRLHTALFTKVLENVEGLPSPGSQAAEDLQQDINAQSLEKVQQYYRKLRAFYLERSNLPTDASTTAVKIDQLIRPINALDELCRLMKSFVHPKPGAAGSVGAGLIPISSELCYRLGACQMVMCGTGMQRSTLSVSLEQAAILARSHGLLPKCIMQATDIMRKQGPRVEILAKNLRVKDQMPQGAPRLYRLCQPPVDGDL

- liposome-based GEF assay, Gβγ dose-response (0.5 μM PIP3): EC50 of activation of P-Rex1 against WT Gβγ; lower efficacy than WT: 10 fold
Substance: Geranylgeranylated human Gβ1γ2 with Gβ W332A (from UniProt P62873 1-340; P59768 1-71) (complex)
